US20110091994A1, “Methods for Screening Compounds for Treating and/or Preventing an Hepatitis C Virus Infection” (priority 2008, published 2011)
Where two headings read alike, the source gives them in different places.

B1: FAM65A (protein, UniProt Q6ZS17 1-1223, looked up)
Rho family-interacting cell …: MMSLSVRPQRRLLSARVNRSQSFAGVLGSHERGPSLSFRSFPVFSPPGPPRKPPALSRVSRMFSVAHPAAKVPQPERLDLVYTALKRGLTAYLEVHQQEQEKLQGQIRESKRNSRLGFLYDLDKQVKSIERFLRRLEFHASKIDELYEAYCVQRRLRDGAYNMVRAYTTGSPGSREARDSLAEATRGHREYTESMCLLESELEAQLGEFHLRMKGLAGFARLCVGDQYEICMKYGRQRWKLRGRIEGSGKQVWDSEETIFLPLLTEFLSIKVTELKGLANHVVVGSVSCETKDLFAALPQVVAVDINDLGTIKLSLEVTWSPFDKDDQPSAASSVNKASTVTKRFSTYSQSPPDTPSLREQAFYNMLRRQEELENGTAWSLSSESSDDSSSPQLSGTARHSPAPRPLVQQPEPLPIQVAFRRPETPSSGPLDEEGAVAPVLANGHAPYSRTLSHISEASVDAALAEASVEAVGPESLAWGPSPPTHPAPTHGEHPSPVPPALDPGHSATSSTLGTTGSVPTSTDPAPSAHLDSVHKSTDSGPSELPGPTHTTTGSTYSAITTTHSAPSPLTHTTTGSTHKPIISTLTTTGPTLNIIGPVQTTTSPTHTMPSPTHTTASPTHTSTSPTHTPTSPTHKTSMSPPTTTSPTPSGMGLVQTATSPTHPTTSPTHPTTSPILINVSPSTSLELATLSSPSKHSDPTLPGTDSLPCSPPVSNSYTQADPMAPRTPHPSPAHSSRKPLTSPAPDPSESTVQSLSPTPSPPTPAPQHSDLCLAMAVQTPVPTAAGGSGDRSLEEALGALMAALDDYRGQFPELQGLEQEVTRLESLLMQRQGLTRSRASSLSITVEHALESFSFLNEDEDEDNDVPGDRPPSSPEAGAEDSIDSPSARPLSTGCPALDAALVRHLYHCSRLLLKLGTFGPLRCQEAWALERLLREARVLEAVCEFSRRWEIPASSAQEVVQFSASRPGFLTFWDQCTERLSCFLCPVERVLLTFCNQYGARLSLRQPGLAEAVCVKFLEDALGQKLPRRPQPGPGEQLTVFQFWSFVETLDSPTMEAYVTETAEEVLLVRNLNSDDQAVVLKALRLAPEGRLRRDGLRALSSLLVHGNNKVMAAVSTQLRSLSLGPTFRERALLCFLDQLEDEDVQTRVAGCLALGCIKAPEGIEPLVYLCQTDTEAVREAARQSLQQCGEEGQSAHRRLEESLDALPRIFGPGSMASTAF
B2: PABPN1 (protein, UniProt Q86U42 2-306, looked up)
Polyadenylate-binding protein …: AAAAAAAAAAGAAGGRGSGPGRRRHLVPGAGGEAGEGAPGGAGDYGNGLESEELEPEELLLEPEPEPEPEEEPPRPRAPPGAPGPGPGSGAPGSQEEEEEPGLVEGDPGDGAIEDPELEAIKARVREMEEEAEKLKELQNEVEKQMNMSPPPGNAGPVIMSIEEKMEADARSIYVGNVDYGATAEELEAHFHGCGSVNRVTILCDKFSGHPKGFAYIEFSDKESVRTSLALDESLFRGRQIKVIPKRTNRPGISTTDRGFPRARYRARTTNYNSSRSRFYSGFNSRPRGRVYRGRARATSWYSPY
B3: NUCB1 (protein, UniProt Q02818 27-461, looked up)
Nucleobindin-1: VPLERGAPNKEETPATESPDTGLYYHRYLQEVIDVLETDGHFREKLQAANAEDIKSGKLSRELDFVSHHVRTKLDELKRQEVSRLRMLLKAKMDAEQDPNVQVDHLNLLKQFEHLDPQNQHTFEARDLELLIQTATRDLAQYDAAHHEEFKRYEMLKEHERRRYLESLGEEQRKEAERKLEEQQRRHREHPKVNVPGSQAQLKEVWEELDGLDPNRFNPKTFFILHDINSDGVLDEQELEALFTKELEKVYDPKNEEDDMREMEEERLRMREHVMKNVDTNQDRLVTLEEFLASTQRKEFGDTGEGWETVEMHPAYTEEELRRFEEELAAREAELNAKAQRLSQETEALGRSQGRLEAQKRELQQAVLHMEQRKQQQQQQQGHKAPAAHPEGQLKFHPDTDDVPVPAPAGDQKEVDTSEKKLLERLPEVEVPQHL
B4: FBF1 (protein, UniProt Q8TES7 1-1133, looked up)
Fas-binding factor 1: MAPKTKKGCKVTLPEKPVKLASHTRDTTGVSQMFPSSKARTKSLLGDDVFSTMAGLEEADAEVSGISEADPQALLQAMKDLDGMDADILGLKKSNSAPSKKAAKDPGKGELPNHPKPAGGAIPTKKSLPSPSSSGHQNRRFSSEDLEDPLRGLLSYDEGGITKQPPVTQSKTASDKSPSTVRDQGPSIPLTPGDTPIRKKEELLFDDGDDIMATLGFGDSPKAEKRQIGDQEGPRPARSTLDELLGRGMATKLLARPGTGEHREFKLDKKYQRPQDSEDMWGDEDFTFGAYQPTVVSSEGRQSRRQSVSRFFADSGADPKGEPGSKQSPPMASSPIQPRKGGADWLGLKDEDLDLFPASPTREAHRESSVPVTPSVPPPASQHSTPAGLPPSRAKPPTEGAGSPAKASQASKLRASKEEKEDWLSHALSRKKSQGLAREQHAGTSEGLHLAGTAGHPPSGSQPLTSTQGLEHAAAGGSSGTTARERPCVRPGVSGSPVTQNHAASALPTGSPKRGTAPGDLSATEPATCFPSTQKPTEPSVPVQPLLPESLARSLLPSTEYQKQLLAAQVQLQCSPAELQAELLHSQARLAELEAQVRKLELERAQHELLLGSLQQQHQADLELIESAHRSRIKVLETSYQQREERLRRENEELSARYLSQCQEAEQARAELTAQHQRRLAAIAQEKDQEMERLRELQRASILDMRRDHEEQLQRLKLLKDREVDAATSATSHTRSLNSIIHQMEKFSSSLHELSSRVEASHLTTSQERELGIRQRDEQLRALQERLGQQQRDMEEERSRQQEVIGKMEARLNEQSRLLEQERWRVTAEQSKAESMQRALEEQRKVTAQQMAMERAELERAKSALLEEQKSVMLKCGEERRRLAAEWAEFSAQQKLSKERAEREAERALQVDTQREGTLISLAKQAELKIRASELRAEEKQLAAERAALEQERQELRLEKERINATALRVKLRAEEVESMSKVASEKYEEGERALREAQQVQAEQQARLQAVQQQQERLRKQEQHMHQEHLSLAQQRLQLDRARQDLPSSLVGLFPRAQGPAASSQSALMPPAPTTRWCSQPPTGLDPSPLHLHARLALLRHMAEQDRDFLENEQFFLETLKKGSYNLTSHSA
B5: PRRC1 (protein, UniProt Q96M27 1-445, looked up)
Protein PRRC1: MMEESGIETTPPGTPPPNPAGLAATAMSSTPVPLAATSSFSSPNVSSMESFPPLAYSTPQPPLPPVRPSAPLPFVPPPAVPSVPPLVTSMPPPVSPSTAAAFGNPPVSHFPPSTSAPNTLLPAPPSGPPISGFSVGSTYDITRGHAGRAPQTPLMPSFSAPSGTGLLPTPITQQASLTSLAQGTGTTSAITFPEEQEDPRITRGQDEASAGGIWGFIKGVAGNPMVKSVLDKTKHSVESMITTLDPGMAPYIKSGGELDIVVTSNKEVKVAAVRDAFQEVFGLAVVVGEAGQSNIAPQPVGYAAGLKGAQERIDSLRRTGVIHEKQTAVSVENFIAELLPDKWFDIGCLVVEDPVHGIHLETFTQATPVPLEFVQQAQSLTPQDYNLRWSGLLVTVGEVLEKSLLNVSRTDWHMAFTGMSRRQMIYSAARAIAGMYKQRLPPRTV

Experiments:
[1] = biological target: T1, HCV ORFs (Gal4-DB fusions) (Hepatitis C virus genotype 1b, UniProt Q9WMX2); type: binding, HCV genotype 1b, isolate con1; details: human protein as prey
T1 construct: expressed in transfected cells; host or cells: Saccharomyces cerevisiae MAV203 (IMAP1) / AH109 (IMAP2)

[2] = test system: HCV ORFs (Gal4-DB fusions); type: binding, HCV genotype 1b, isolate con1; details: human protein listed by gene symbol; the value names the HCV protein it interacts with
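Note: yeast two-hybrid screens using HCV genotype 1b proteins fused to Gal4-DB as baits against prey cDNA libraries from human spleen and foetal brain, IMAP1 via transformation and IMAP2 via mating.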

| Molecule | IMAP Y2H IMAP2 (number of IST) ([1]; HCV protein NS3 as bait) | Interaction with viral protein [2] | IMAP Y2H IMAP2 (number of IST) ([1]; HCV protein CORE as bait) | IMAP Y2H IMAP2 (number of IST) ([1]; HCV protein NS5A as bait) |
| --- | --- | --- | --- | --- |
| B1 | 1 | NS3 |  |  |
| B2 |  | CORE | 1 |  |
| B3 |  | NS3 and NS5A |  | 2 |
| B4 | 3 | NS3 |  |  |
| B5 | 1 | NS3 |  |  |
